Test results: US20260234252A1 (published 2026)
Values joined by “and” are separate entries in the source; they are usually repeats but may differ in a detail not shown here. Equal values may be shown once. Read-outs that look alike come from different tables or passages of the source.

How the values were obtained:
[1] = target: T1, Vβ17 on human CD8+ T cells (human); assay: FACS
T1 chain: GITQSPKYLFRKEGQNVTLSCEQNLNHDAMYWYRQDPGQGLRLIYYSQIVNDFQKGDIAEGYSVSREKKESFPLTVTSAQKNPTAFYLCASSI

[2] = target: T1, Vβ17 on human CD8+ T cells; assay: FACS

B1: VB13 (Vβ17×Null) bispecific antibody (bispecific antibody)
heavy 1: QVQLQESGPGLVKPSETLSLTCTVSGYSITSGYFWNWIRQPPGKGLEWIGYISYDGSNNYNPSLKSRVTISRDTSKNQFSLKLSSVTAADTAVYYCASPSPGTGYAVDYWGQGTLVTVSSASTKGPSVFPLAPCSRSTSESTAALGCLVKDYFPEPVTVSWNSGALTSGVHTFPAVLQSSGLYSLSSVVTVPSSSLGTKTYTCNVDHKPSNTKVDKRVESKYGPPCPPCPAPEAAGGPSVFLFPPKPKDTLMISRTPEVTCVVVDVSQEDPEVQFNWYVDGVEVHNAKTKPREEQFNSTYRVVSVLTVLHQDWLNGKEYKCKVSNKGLPSSIEKTISKAKGQPREPQVYTLPPSQEEMTKNQVSLSCAVKGFYPSDIAVEWESNGQPENNYKTTPPVLDSDGSFFLVSRLTVDKSRWQEGNVFSCSVMHEALHNRFTQKSLSLSLGK
light 1: DIQMTQSPSSLSASVGDRVTITCRSSQSLVHSNGNTYLHWYQQKPGKAPKFLIYKVSNRFSGVPSRFSGSGSGTDFTLTISSLQPEDFATYYCSQSTHVPFTFGQGTKLEIKRTVAAPSVFIFPPSDEQLKSGTASVVCLLNNFYPREAKVQWKVDNALQSGNSQESVTEQDSKDSTYSLSSTLTLSKADYEKHKVYACEVTHQGLSSPVTKSFNRGEC
heavy 2: not shown
light 2: not shown
B1 was tested, and the EC50 [1] was 12.6 nM and the EC50 [2] was 1.4 nM and 1.5 nM.

B2: VB11 (anti-Vβ17/anti-CD123) bispecific antibody (bispecific antibody)
heavy 1: B1 heavy 1
light 1: B1 light 1
heavy 2: EVQLVQSGAEVKKPGESLKISCKGSGYSFTSYWISWVRQMPGKGLEWMGIIDPSDSDTRYSPSFQGQVTISADKSISTAYLQWSSLKASDTAMYYCARGDGSTDLDYWGQGTLVTVSSASTKGPSVFPLAPCSRSTSESTAALGCLVKDYFPEPVTVSWNSGALTSGVHTFPAVLQSSGLYSLSSVVTVPSSSLGTKTYTCNVDHKPSNTKVDKRVESKYGPPCPPCPAPEAAGGPSVFLFPPKPKDTLMISRTPEVTCVVVDVSQEDPEVQFNWYVDGVEVHNAKTKPREEQFNSTYRVVSVLTVLHQDWLNGKEYKCKVSNKGLPSSIEKTISKAKGQPREPQVYTLPPSQEEMTKNQVSLWCLVKGFYPSDIAVEWESNGQPENNYKTTPPVLDSDGSFFLYSRLTVDKSRWQEGNVFSCSVMHEALHNHYTQKSLSLSLGK
light 2: EIVLTQSPGTLSLSPGERATLSCRASQSVSSSYLAWYQQKPGQAPRLLIYGASSRATGIPDRFSGSGSGTDFTLTISRLEPEDFAVYYCQQDYGFPWTFGQGTKVEIKRTVAAPSVFIFPPSDEQLKSGTASVVCLLNNFYPREAKVQWKVDNALQSGNSQESVTEQDSKDSTYSLSSTLTLSKADYEKHKVYACEVTHQGLSSPVTKSFNRGEC
With B2 the EC50 [2] was 0.8 nM and 1.26 nM.
